According to publication PMC10940649, “Structural insights into human organic cation transporter 1 transport and inhibition” (Cell Discovery, 2024):

Biological target: T1, human organic cation transporter 1 (hOCT1) (Homo sapiens, UniProt O15245)
T1 construct: human organic cation transporter 1 (SLC22A1), full-length, wild-type construct used for cryo-EM structure determination; A 3C protease cleavage site stands between hOCT1 and GFPuv-His6; The FSEC-TS assay used hOCT1-GFP; also called SLC22A1; hOCT1-GFP; source: Sf9 insect cells (baculovirus), purified (Ni-NTA, protein C column, SEC) in DDM or LMNG micelles
Assay: SEC; Nb56 with hOCT1; co-migration on size exclusion chromatography
Settings: both partners purified

T1 sequence (O15245 whole entry): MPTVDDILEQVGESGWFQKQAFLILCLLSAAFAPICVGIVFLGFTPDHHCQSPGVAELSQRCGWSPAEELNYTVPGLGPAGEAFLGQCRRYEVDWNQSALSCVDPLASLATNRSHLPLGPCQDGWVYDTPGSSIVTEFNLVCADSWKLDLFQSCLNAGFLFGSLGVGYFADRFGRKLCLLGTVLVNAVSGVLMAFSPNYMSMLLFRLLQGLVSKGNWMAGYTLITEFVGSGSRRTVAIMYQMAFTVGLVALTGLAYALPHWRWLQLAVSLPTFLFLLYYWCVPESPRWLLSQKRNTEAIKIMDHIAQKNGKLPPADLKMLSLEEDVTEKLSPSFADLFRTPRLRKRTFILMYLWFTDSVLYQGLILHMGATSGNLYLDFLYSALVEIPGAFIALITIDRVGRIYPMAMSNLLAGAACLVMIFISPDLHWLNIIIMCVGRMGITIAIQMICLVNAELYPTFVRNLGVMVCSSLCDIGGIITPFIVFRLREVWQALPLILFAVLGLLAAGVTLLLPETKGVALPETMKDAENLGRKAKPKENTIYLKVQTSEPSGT

B1: Nb56 (VHH)
VHH: QVQLQESGGGLVQAGGSLRLSCAASGTIFYYEIMGWYRQAPGKEREFVATIDQGGITNYADSVKGRFTISRDNAKNTVYLQMNSLKPEDTAVYYCAVPDVFVGRGWDYLIYWGQGTQVTVSS
notes: Nanobody selected from a synthetic yeast display library with hOCT1 in LMNG as bait; Nb56 was modelled in the deposited hOCT1-Nb5660 structures (hOCT1-apo1, -apo2, -apo3); source: E. coli BL21 (DE3), pET26b, purified (Ni-NTA, SEC)
**Q.** Does B1 bind?
**A.** binds
